Results on six variants are retold here after the supplement of paper PMC11908140.

B1: library; numbered along this chain (parent)
chain: MRKPRAAVGSGHRKQAASQEGRQKHAKNNSQAKPSACDGLARQPEEVVLQASVSSYHLFRDVAEVTAFRGSLLSWYDQEKRDLPWRRRAEDEMDLDRRAYAVWVSEVMLQQTQVATVINYYTGWMQKWPTLQDLASASLEEVNQLWAGLGYYSRGRRLQEGARKVVEELGGHMPRTAETLQQLLPGVGRYTAGAIASIAFGQATGVVDGNVARVLCRVRAIGADPSSTLVSQQLWGLAQQLVDPARPGDFNQAAMELGATVCTPQRPLCSQCPVESLCRARQRVEQEQLLASGSLSGSPDVEECAPNTGQCHLCLPPSEPWDQTLGVVNFPRKASRKPPREESSATCVLEQPGALGAQILLVQRPNSGLLAGLWEFPSVTWEPSEQLQRKALLQELQRWAGPLPATHLRHLGEVVHTFSHIKLTYQVYGLALEGQTPVTTVPPGARWLTQEEFHTAAVSTAMKKVFRVYQGQQPGTCMGSKRSQVSSPCSRKKPRMGQQVLDNFFRSHISTDAHSLNSAAQ

The series covers variants of B1. The experiment in a line: 8OG:A repair function score (normalized; synonymous = 0, nonsense = -1) (normalized log-likelihood score); higher = more repair activity (WT-like). The settings on record: with 8OG:A DNA repair reporter (GFP) in HEK-293 MUTYH KO cells. The method, then: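 Saturation mutagenesis (NNN codon scan) of the MUTYH cDNA (521-aa nuclear isoform NM_001048174.1 / NP_001041639), stably expressed under doxycycline induction in HEK-293 MUTYH knockout cells. Cells were co-transfected with an 8OG:A-bearing GFP repair reporter plus mCherry and sorted 72 h later into GFP+ and GFP− bins, three replicates per tile. The Rosace log2 enrichment (GFP+ vs GFP−) was converted per tile to a normalized function score with synonymous variants centered at 0 and nonsense variants (codons 1-471) at -1; low-abundance variants were removed.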
Turning to MRKPRAAVGSGHRKQAASQEGRQKHAKNNSQAKPSACDGLARQPEEVVLQASVSSYHLFRDVAEVTAFRLSLLSWYDQEKRDLPWRRRAEDEMDLDRRAYAVWVSEVMLQQTQVATVINYYTGWMQKWPTLQDLASASLEEVNQLWAGLGYYSRGRRLQEGARKVVEELGGHMPRTAETLQQLLPGVGRYTAGAIASIAFGQATGVVDGNVARVLCRVRAIGADPSSTLVSQQLWGLAQQLVDPARPGDFNQAAMELGATVCTPQRPLCSQCPVESLCRARQRVEQEQLLASGSLSGSPDVEECAPNTGQCHLCLPPSEPWDQTLGVVNFPRKASRKPPREESSATCVLEQPGALGAQILLVQRPNSGLLAGLWEFPSVTWEPSEQLQRKALLQELQRWAGPLPATHLRHLGEVVHTFSHIKLTYQVYGLALEGQTPVTTVPPGARWLTQEEFHTAAVSTAMKKVFRVYQGQQPGTCMGSKRSQVSSPCSRKKPRMGQQVLDNFFRSHISTDAHSLNSAAQ [G70L], the “8OG:A repair function score” value is -0.0189.

MRKPRAAVGSGHRKQAASQEGRQKHAKNNSQAKPSACDGLARQPEEVVLQASVSSYHLFRDVAEVTAFRCSLLSWYDQEKRDLPWRRRAEDEMDLDRRAYAVWVSEVMLQQTQVATVINYYTGWMQKWPTLQDLASASLEEVNQLWAGLGYYSRGRRLQEGARKVVEELGGHMPRTAETLQQLLPGVGRYTAGAIASIAFGQATGVVDGNVARVLCRVRAIGADPSSTLVSQQLWGLAQQLVDPARPGDFNQAAMELGATVCTPQRPLCSQCPVESLCRARQRVEQEQLLASGSLSGSPDVEECAPNTGQCHLCLPPSEPWDQTLGVVNFPRKASRKPPREESSATCVLEQPGALGAQILLVQRPNSGLLAGLWEFPSVTWEPSEQLQRKALLQELQRWAGPLPATHLRHLGEVVHTFSHIKLTYQVYGLALEGQTPVTTVPPGARWLTQEEFHTAAVSTAMKKVFRVYQGQQPGTCMGSKRSQVSSPCSRKKPRMGQQVLDNFFRSHISTDAHSLNSAAQ [G70C]: the “8OG:A repair function score” value was 0.00567.

As to MRKPRAAVGSGHRKQAASQEGRQKHAKNNSQAKPSACDGLARQPEEVVLQASVSSYHLFRDVAEVTAFRDSLLSWYDQEKRDLPWRRRAEDEMDLDRRAYAVWVSEVMLQQTQVATVINYYTGWMQKWPTLQDLASASLEEVNQLWAGLGYYSRGRRLQEGARKVVEELGGHMPRTAETLQQLLPGVGRYTAGAIASIAFGQATGVVDGNVARVLCRVRAIGADPSSTLVSQQLWGLAQQLVDPARPGDFNQAAMELGATVCTPQRPLCSQCPVESLCRARQRVEQEQLLASGSLSGSPDVEECAPNTGQCHLCLPPSEPWDQTLGVVNFPRKASRKPPREESSATCVLEQPGALGAQILLVQRPNSGLLAGLWEFPSVTWEPSEQLQRKALLQELQRWAGPLPATHLRHLGEVVHTFSHIKLTYQVYGLALEGQTPVTTVPPGARWLTQEEFHTAAVSTAMKKVFRVYQGQQPGTCMGSKRSQVSSPCSRKKPRMGQQVLDNFFRSHISTDAHSLNSAAQ [G70D], the “8OG:A repair function score” value was -0.369.

For the variant MRKPRAAVGSGHRKQAASQEGRQKHAKNNSQAKPSACDGLARQPEEVVLQASVSSYHLFRDVAEVTAFRISLLSWYDQEKRDLPWRRRAEDEMDLDRRAYAVWVSEVMLQQTQVATVINYYTGWMQKWPTLQDLASASLEEVNQLWAGLGYYSRGRRLQEGARKVVEELGGHMPRTAETLQQLLPGVGRYTAGAIASIAFGQATGVVDGNVARVLCRVRAIGADPSSTLVSQQLWGLAQQLVDPARPGDFNQAAMELGATVCTPQRPLCSQCPVESLCRARQRVEQEQLLASGSLSGSPDVEECAPNTGQCHLCLPPSEPWDQTLGVVNFPRKASRKPPREESSATCVLEQPGALGAQILLVQRPNSGLLAGLWEFPSVTWEPSEQLQRKALLQELQRWAGPLPATHLRHLGEVVHTFSHIKLTYQVYGLALEGQTPVTTVPPGARWLTQEEFHTAAVSTAMKKVFRVYQGQQPGTCMGSKRSQVSSPCSRKKPRMGQQVLDNFFRSHISTDAHSLNSAAQ [G70I], the “8OG:A repair function score” value is -0.00774.

Consider MRKPRAAVGSGHRKQAASQEGRQKHAKNNSQAKPSACDGLARQPEEVVLQASVSSYHLFRDVAEVTAFRESLLSWYDQEKRDLPWRRRAEDEMDLDRRAYAVWVSEVMLQQTQVATVINYYTGWMQKWPTLQDLASASLEEVNQLWAGLGYYSRGRRLQEGARKVVEELGGHMPRTAETLQQLLPGVGRYTAGAIASIAFGQATGVVDGNVARVLCRVRAIGADPSSTLVSQQLWGLAQQLVDPARPGDFNQAAMELGATVCTPQRPLCSQCPVESLCRARQRVEQEQLLASGSLSGSPDVEECAPNTGQCHLCLPPSEPWDQTLGVVNFPRKASRKPPREESSATCVLEQPGALGAQILLVQRPNSGLLAGLWEFPSVTWEPSEQLQRKALLQELQRWAGPLPATHLRHLGEVVHTFSHIKLTYQVYGLALEGQTPVTTVPPGARWLTQEEFHTAAVSTAMKKVFRVYQGQQPGTCMGSKRSQVSSPCSRKKPRMGQQVLDNFFRSHISTDAHSLNSAAQ [G70E], for which the “8OG:A repair function score” value was -0.0876.

As for MRKPRAAVGSGHRKQAASQEGRQKHAKNNSQAKPSACDGLARQPEEVVLQASVSSYHLFRDVAEVTAFRASLLSWYDQEKRDLPWRRRAEDEMDLDRRAYAVWVSEVMLQQTQVATVINYYTGWMQKWPTLQDLASASLEEVNQLWAGLGYYSRGRRLQEGARKVVEELGGHMPRTAETLQQLLPGVGRYTAGAIASIAFGQATGVVDGNVARVLCRVRAIGADPSSTLVSQQLWGLAQQLVDPARPGDFNQAAMELGATVCTPQRPLCSQCPVESLCRARQRVEQEQLLASGSLSGSPDVEECAPNTGQCHLCLPPSEPWDQTLGVVNFPRKASRKPPREESSATCVLEQPGALGAQILLVQRPNSGLLAGLWEFPSVTWEPSEQLQRKALLQELQRWAGPLPATHLRHLGEVVHTFSHIKLTYQVYGLALEGQTPVTTVPPGARWLTQEEFHTAAVSTAMKKVFRVYQGQQPGTCMGSKRSQVSSPCSRKKPRMGQQVLDNFFRSHISTDAHSLNSAAQ [G70A], the “8OG:A repair function score” value is -0.0222.
